Laboratory results from publication PMC60004 (BMC Biochemistry, 2001).

Columns and labels:
[1] = molecular target: Bombyx mori aminopeptidase N, native, 115-kDa (115-120 kDa) Cry1Aa-binding receptor (Bombyx mori (endogenous in larval …)); assay: SPR
[2] = molecular target: Bombyx mori cadherin-like receptor BtR175, native, 175 kDa (Bombyx mori (endogenous in larval …)); assay: SPR

B1: Bacillus thuringiensis Cry1Aa toxin (trypsin-activated, wild type) (domain or fragment)
chain: not shown
- Kd [1]: 0.075 µM
- koff [1]: 0.0015 s⁻¹
- kon [1]: 20000 M⁻¹ s⁻¹
- Kd [2]: 0.0026 µM
- koff [2]: 3.3e-05 s⁻¹
- kon [2]: 13000 ± 6.1 M⁻¹ s⁻¹
